From US20150315607A1 (ACADEMIA SINICA, published 2015)
Blank lines part the entries; values can stand above or below the binder they belong to.

B3: ETERNAL TAPETUM 1 (EAT1) (other)
chain: MIVGAGYFEDSHDQSLMAGSLIHDSNQAPASSENTSIDLQKFKVHPYSTEALSNTANLAEAARAINHLQHQLEIDLEQEVPPVETANWDPAICTIPDHIINHQFSEDPQNILVEQQIQQYDSALYPNGVYTPAPDLLNLMQCTMAPAFPATTSVFGDTTLNGTNYLDLNGELTGVAAVPDSGSGLMFASDSALQLGYHGTQSHLIKDICHSLPQNYGLFPSEDERDVIIGVGSGDLFQEIDDRQFDSVLECRRGKGEFGKGKGKANFATERERREQLNVKFRTLRMLFPNPTKNDRASIVGDAIEYIDELNRTVKELKILVEQKRHGNNRRKVLKLDQEAAADGESSSMRPVRDDQDNQLHGAIRSSWVQRRSKECHVDVRIVDDEVNIKLTEKKKANSLLHAAKVLDEFQLELIHVVGGIIGDHHIFMFNTKVSEGSAVYACAVAKKLLQAVDVQHQALDIFN

Experiments:
ETERNAL TAPETUM 1 (EAT1) = target: B3; assay: yeast two-hybrid and BiFC (FIG. 13)
TAPETUM …ON …ON (TDR1) = TAPETUM …ON …ON (TDR1) (Oryza sativa (rice), UniProt Q6YUS3 1-552); assay: cell-based or functional assay
CYN1-EAT1 = target: T1, CYN1-EAT1 (Oryza sativa (rice), UniProt Q7X8R0 1-464); assay: BiFC in rice protoplasts
T1 construct: BiFC construct expressed in rice protoplasts
T1 sequence: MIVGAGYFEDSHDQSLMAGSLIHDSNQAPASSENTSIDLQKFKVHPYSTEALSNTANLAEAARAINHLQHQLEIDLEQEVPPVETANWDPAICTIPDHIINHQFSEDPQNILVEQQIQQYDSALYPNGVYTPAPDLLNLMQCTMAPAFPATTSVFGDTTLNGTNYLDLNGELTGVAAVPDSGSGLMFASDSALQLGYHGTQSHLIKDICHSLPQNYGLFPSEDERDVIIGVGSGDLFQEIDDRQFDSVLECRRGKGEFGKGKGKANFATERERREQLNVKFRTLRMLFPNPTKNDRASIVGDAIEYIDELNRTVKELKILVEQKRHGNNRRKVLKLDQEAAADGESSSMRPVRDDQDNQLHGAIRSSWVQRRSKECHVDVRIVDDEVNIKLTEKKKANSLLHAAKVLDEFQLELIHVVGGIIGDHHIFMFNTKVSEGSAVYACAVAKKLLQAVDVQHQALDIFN
Method: Next, the tested genes were introduced into pSAT5-DEST_CYN1 and pSAT4(A)-DEST_NYN1. Ballistic bombardment-mediated transient transformation in rice protoplasts was carried out following a previously published protocol³⁶. Florescence images were photographed on a LSM 780 Plus ELYRA S.1 confocal microscope with Plan-Apochromat 40×/1.4 oil objective lens (Zeiss, Germany).

binding result (ETERNAL TAPETUM 1 (EAT1)): no binding
Luc expression from the EAT1 promoter (EAT1pro-Luc), transient assay in rice protoplasts (TAPETUM …ON …ON (TDR1)): ≤ 30 fold
B1: transcription factor bHLH142 (other)
chain: MYHPQCELLMPLESLEMDVGQSHLAAAVAAAMPGELNFHLLHSLDAAAAAASSTAASASSQPTVDYFFGGADQQPPPPAAMQYDQLAAPHHHQTVAMLRDYYGGHYPPAAAAAAATEAYFRGGPRTAGSSSLVFGPADDESAFMVGPFESSPTPRSGGGRKRSRATAGFHGGGPANGVEKKEKQRRLRLTEKYNALMLLIPNRTKEDRATVISDAIEYIQELGRTVEELTLLVEKKRRRREMQGDVVDAATSSVVAGMDQAAESSEGEVMAAAAMGAVAPPPRQAPIRSTYIQRRSKETFVDVRIVEDDVNIKLTKRRRDGCLAAASRALDDLRLDLVHLSGGKIGDCHIYMFNTKIHSGSPVFASAVASRLIEVVDEY
notes: Rice bHLH transcription factor as named in general statements and as 35S-driven effector in the EAT1pro-Luc protoplast assay; also called Os01g0293100

binding result (CYN1-EAT1): no binding
B2: NYN1-bHLH142 (other, not shown: large carriers)
chain: MYHPQCELLMPLESLEMDVGQSHLAAAVAAAMPGELNFHLLHSLDAAAAAASSTAASASSQPTVDYFFGGADQQPPPPAAMQYDQLAAPHHHQTVAMLRDYYGGHYPPAAAAAAATEAYFRGGPRTAGSSSLVFGPADDESAFMVGPFESSPTPRSGGGRKRSRATAGFHGGGPANGVEKKEKQRRLRLTEKYNALMLLIPNRTKEDRATVISDAIEYIQELGRTVEELTLLVEKKRRRREMQGDVVDAATSSVVAGMDQAAESSEGEVMAAAAMGAVAPPPRQAPIRSTYIQRRSKETFVDVRIVEDDVNIKLTKRRRDGCLAAASRALDDLRLDLVHLSGGKIGDCHIYMFNTKIHSGSPVFASAVASRLIEVVDEY
notes: BiFC construct expressed in rice protoplasts

Binder: B3
Luc expression from the EAT1 promoter (EAT1pro-Luc) with bHLH142, TDR1 and additional EAT1, transient assay in rice protoplasts (TAPETUM …ON …ON (TDR1)): 18 fold
